Source: patent publication US6586222 (CHIRON, dated 2003)
The star is where a group is joined. P(O)(OPh)2 = diphenyl phosphonate replacing C-terminal COOH, O=P(Oc1ccccc1)(Oc1ccccc1)*; Boc = CC(C)(C)OC(=O)*

Target: T1, purified, activated recombinant human PR-3 (from proPR-3 secreted by Sf9 insect cells, activated with DPPI) (human, UniProt P24158 28-256)
T1 sequence: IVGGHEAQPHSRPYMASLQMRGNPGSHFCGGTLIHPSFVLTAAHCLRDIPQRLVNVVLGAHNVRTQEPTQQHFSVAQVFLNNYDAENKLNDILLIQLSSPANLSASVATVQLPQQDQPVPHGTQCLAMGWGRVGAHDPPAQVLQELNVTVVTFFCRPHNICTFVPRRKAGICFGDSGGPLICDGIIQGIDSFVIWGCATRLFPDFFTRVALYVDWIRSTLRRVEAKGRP
Experiment: cell-based or functional assay

B1: Boc-Val-Pro-Val-p(OPh)2 (peptide)
peptide: Boc-Val-Pro-Val-{P(O)(OPh)2}
- IC50 of residual enzyme activity (Boc-Ala-ONp substrate, 1 hour at 25° C.): ~0.4 µM

B2: Boc-Ala-Pro-Val-p(OPh)2 (peptide)
peptide: Boc-Ala-Pro-Val-{P(O)(OPh)2}
- IC50 of residual enzyme activity (Boc-Ala-ONp substrate, 1 hour at 25° C.): ~10 µM
